Test results taken from patent publication US7947648 (AEROVANCE, dated 2011).

Assays:
[1] = target: T1, IL-4 receptor alpha chain (UniProt P24394 26-232, limits assumed); assay: Biacore (SPR), IL-4 receptor α chain immobilized
T1 construct: also called IL-4Rα; IL-4 receptor α chain
T1 sequence (looked up): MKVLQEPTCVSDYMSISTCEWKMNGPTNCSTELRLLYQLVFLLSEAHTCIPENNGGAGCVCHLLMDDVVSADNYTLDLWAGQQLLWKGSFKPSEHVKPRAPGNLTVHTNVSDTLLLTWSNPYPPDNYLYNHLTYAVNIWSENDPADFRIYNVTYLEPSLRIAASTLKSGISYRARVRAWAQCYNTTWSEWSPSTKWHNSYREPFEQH

[2] = target: T1, IL-4 receptor alpha chain; assay: Biacore assay, pre- and post-nebulized IL-4RA samples (Aeroneb Pro); no difference between them
[3] = target: T1, IL-4 receptor alpha chain; assay: Biacore (SPR), IL-4 receptor α chain immobilized; n = 7
[4] = target: T1, IL-4 receptor alpha chain; assay: cell-based or functional assay

B1: IL-4RA (mutant human IL-4 protein with the R121D/Y124D pair of substitutions) (ligand)
chain: MHKCDITLQEIIKTLNSLTEQKTLCTELTVTDIFAASKNTTEKETFCRAATVLRQFYSHHEKDTRCLGATAQQFHRHKQLIRFLKRLDRNLWGLAGLNSCPVKEANQSTLENFLERLKTIMDEKDSKCSS
notes: The entry may carry an N-terminal methionine; also called mhIL-4; IL-4 mutein
koff [1]: 0.0017 s⁻¹
kon [1]: 1.6e+07 M⁻¹ s⁻¹
Kd [2]: ~0.1 nM
Kd [3]: 0.14 nM
EC50, inhibition of IL-4-induced cell proliferation (TF-1/IL-4 proliferation assay), pre and post nebulization (Aeroneb Pro) [4]: 0.2 to 0.3 nM
IC50, TF-1 proliferation assay, post nebulization (Pari LC Plus) [4]: 0.483 nM
IC50, TF-1 proliferation assay, pre nebulization (Pari LC Plus) [4]: 0.459 nM
